Laboratory results reported in patent US20190127468A1 (ONCOIMMUNE, published 2019).
Numbering of substitutions follows the chain as printed. Names may count otherwise.

B1: human B7-1 Fc fusion protein (Fc fusion, UniProt P33681 35-242, looked up)
chain: VIHVTKEVKEVATLSCGHNVSVEELAQTRIYWQKEKKMVLTMMSGDMNIWPEYKNRTIFDITNNLSIVILALRPSDEGTYECVVLKYEKDAFKREHLAEVTLSVKADFPTPSISDFEIPTSNIRRIICSTSGGFPEPHLSWLENGEELNAINTTVSQDPETELYAVSSKLDFNMTTNHSFMCLIKYGHLRVNQTFNWNTTKQEHFPDN
modifications: biotinylated (sites not given)
notes: Control protein; Used biotinylated in soluble phase; also called Biotin-HB7-1; Biotin-hB7-1; not shown: Fc portion
B2: human B7-1 Fc fusion protein (Fc fusion, UniProt P33681 35-242, looked up)
chain: B1 chain
notes: also called B7-1 Ig; B7-1 Ig fusion protein; not shown: Fc portion, not described
B3: Humanized HC1 + LC2 (PP4631) (antibody, IgG1, V domains shown)
VH: QVQLQESGPGLVKPSETLSLTCTVSGFSLTSYGLSWIRQPPGKGLEWIGYIWYDGNTNFHPSLKSRVTISKDTSKNQFSLKLSSVTAADTAVYYCAKTEGHYYGSNYGYYALDYWGQGTSVTVSS
VL: DIQMTQSPSSLSASVGDRVTITCRASENIYSNLAWYQQKQGKAPKLLLYAATNLQDGVPSRFSGSGSGTDYTLTISSLQPEDFATYFCQHLWGTPYTFGQGTKLEIK
notes: Humanized L3D10; also called H3106 + L3107; HL12
B4: Humanized HC1 + LC1 (PP4630) (antibody, IgG1, V domains shown)
VH: B3 VH
VL: B3 VL with Q40P, D56S, Y71F, F87Y, Q100G
notes: Humanized L3D10; also called H3106 + L3106
B5: Humanized HC3 + LC1 (PP4636) (antibody, IgG1, V domains shown)
VH: B3 VH with P61S, S62P, K71V, S120L
VL: B3 VL with Q40P, D56S, Y71F, F87Y, Q100G
notes: Humanized L3D10; also called H3108 + L3106
B6: Humanized HC2 + LC2 (PP4634) (antibody, IgG1, V domains shown)
VH: B3 VH with P61S, N76S, F78V, S120L
VL: B3 VL
notes: Humanized L3D10; also called H3107 + L3107
B7: Humanized HC1 + LC3 (PP4632) (antibody, IgG1, V domains shown)
VH: B3 VH
VL: B3 VL with Q40P, L48I, N53S, D56S, Y71F, F87Y, Q100G, L104V
notes: Humanized L3D10; also called H3106 + L3108
B8: Humanized HC3 + LC2 (PP4637) (antibody, IgG1, V domains shown)
VH: B3 VH with P61S, S62P, K71V, S120L
VL: B3 VL
notes: Humanized L3D10; also called H3108 + L3107; HL32
B9: Humanized HC2 + LC3 (PP4635) (antibody, IgG1, V domains shown)
VH: B3 VH with P61S, N76S, F78V, S120L
VL: B3 VL with Q40P, L48I, N53S, D56S, Y71F, F87Y, Q100G, L104V
notes: Humanized L3D10; also called H3107 + L3108
B10: Humanized HC3 + LC3 (PP4638) (antibody, IgG1, V domains shown)
VH: B3 VH with P61S, S62P, K71V, S120L
VL: B3 VL with Q40P, L48I, N53S, D56S, Y71F, F87Y, Q100G, L104V
notes: Humanized L3D10; also called H3108 + L3108
B11: Humanized HC2 + LC1 (PP4633) (antibody, IgG1, V domains shown)
VH: B3 VH with P61S, N76S, F78V, S120L
VL: B3 VL with Q40P, D56S, Y71F, F87Y, Q100G
notes: Humanized L3D10; also called H3107 + L3106
B12: chimeric L3D10 antibody (antibody, V domains shown)
VH: QVQLKESGPGLVAPSQSLSITCTVSGFSLTSYGLSWVRQPPGKGLEWLGVIWYDGNTNFHSALISRLTISKDNSKSQVFLELNSLQTDDTATYYCAKTEGHYYGSNYGYYALDYWGQGTSVTVSS
VL: DIQMTQSPASLSVSVGETVTITCRASENIYSNLAWYQQKQGKSPQLLVYAATNLADGVPSRFSGSGSGTQYSLKINSLQSEDFGTYFCQHLWGTPYTFGGGTKLEIKR
notes: Biotinylated in the ELISAs; also called Chimeric Parental; PP4629
B13: chimeric L3D10 antibody (antibody, V domains shown)
VH: B12 VH
VL: B12 VL
modifications: biotinylated (sites not given)
notes: Mouse L3D10 variable regions on human IgG1 with M252Y, S254T, T256E, S298A, E333A, K334A; Used biotinylated in the ELISA; also called Biotin-L3D10; PP4629
B14: anti-mouse CTLA4 mAb 9D9 (antibody, V domains shown)
VH: EAKLQESGPVLVKPGASVKMSCKASGYTFTDYYMNWVKQSHGKSLEWIGVINPYNGDTSYNQKFKGKATLTVDKSSSTAYMELNSLTSEDSAVYYCARYYGSWFAYWGQGTLITVST
VL: DIVMTQTTLSLPVSLGDQASISCRSSQSIVHSNGNTYLEWYLQKPGQSPKLLIYKVSNRFSGVPDRFSGSGSGTDFTLKISRVEAEDLGVYYCFQGSHVPYTFGGGTKLEIK

What was measured:
[1] = biological target: T1, human CTLA-4Fc mutant protein M6 (human); assay: ELISA on coated target; binder 10 ng/ml
T1 construct: also called Mutant 6

[2] = biological target: T1, human CTLA-4Fc mutant protein M6; assay: ELISA on coated target; binder 1000 ng/ml
[3] = biological target: T2, human CTLA-4Fc mutant protein M8 (human); assay: ELISA on coated target; binder 1000 ng/ml
T2 construct: also called Mutant 8

Control IgG1-Fc [4] = biological target: T3, Control IgG1-Fc (human, UniProt P01857-1 99-330 = IgG part, limits assumed); assay: ELISA, plate-coated IgG1-Fc, biotinylated B7-1
T3 construct: domain: Fc; also called hIg-Fc; hIgG

Control IgG1-Fc [5] = biological target: T3, Control IgG1-Fc; assay: ELISA: hIgGFc coated on the plate (negative control), biotinylated antibody in solution, HRP-streptavidin, OD450
[6] = biological target: T4, mouse CTLA4-Fc fusion protein (mouse, UniProt P09793 36-162, limits assumed); assay: ELISA, plate-coated mCTLA4-Fc, biotinylated antibody
T4 construct: also called mCTLA4-Fc; mCTLA-4; not shown: Fc portion, not described

[7] = biological target: T5, huCTLA4 (antigen of the Octet experiments) (human, UniProt P16410 37-162, limits assumed); assay: BLI (Octet Red96), antibody on anti-hIgG Fc biosensor, huCTLA4 in solution, 1:1 fit
T5 construct: Construct of the soluble antigen not described; also called the antigen

M14 = biological target: T6, M14; assay: ELISA: CTLA-4Fc protein coated on the plate, biotinylated antibody in solution, HRP-streptavidin, OD450
T6 construct: human CTLA-4Fc mutant; also called CTLA-4Fc M14

M12 = biological target: T7, M12; assay: as above
T7 construct: human CTLA-4Fc with clusters of murine Ctla-4 residues; also called CTLA-4Fc M12

M16 = biological target: T8, M16; assay: as above
T8 construct: human CTLA-4Fc mutant; also called CTLA-4Fc M16
T8 mutant human CTLA-4 extracellular domain fused to IgG1 Fc: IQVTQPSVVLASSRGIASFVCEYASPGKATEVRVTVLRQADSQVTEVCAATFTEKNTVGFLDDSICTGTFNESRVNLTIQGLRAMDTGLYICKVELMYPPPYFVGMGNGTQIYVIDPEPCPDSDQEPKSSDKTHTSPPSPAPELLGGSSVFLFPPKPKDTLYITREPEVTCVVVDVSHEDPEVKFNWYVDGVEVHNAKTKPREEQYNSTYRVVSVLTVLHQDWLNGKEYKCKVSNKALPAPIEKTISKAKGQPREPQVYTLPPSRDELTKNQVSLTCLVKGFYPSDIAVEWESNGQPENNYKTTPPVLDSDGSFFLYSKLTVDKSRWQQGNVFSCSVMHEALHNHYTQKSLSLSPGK

Control IgG1-Fc [8] = biological target: T3, Control IgG1-Fc; assay: ELISA: hIgGFc coated on the plate (negative control), biotinylated antibody in solution, HRP-streptavidin, OD450; remark: listed apart in the source
[9] = biological target: T5, huCTLA4 (antigen of the Octet …); assay: BLI (Octet), purified 0.1 L material, replicate 1
[10] = biological target: T5, huCTLA4 (antigen of the Octet …); assay: BLI (Octet), purified 0.1 L material, replicate 2
[11] = biological target: T9, mouse CTLA4 in cells of Ctla4 m/m (WT) mice (mouse, UniProt P09793 36-223); assay: flow cytometry, intracellular staining of CTLA4 in spleen cells of Ctla4 m/m mice, gated on CD3+CD4+
T9 construct: whole, on cells; also called murine Ctla-4

[12] = biological target: T1, human CTLA-4Fc mutant protein M6; assay: ELISA on coated target; binder 100 ng/ml
[13] = biological target: T4, mouse CTLA4-Fc fusion protein; assay: blocking ELISA: plate B7-2, biotinylated mouse CTLA4-Fc with the antibody, HRP-streptavidin; blocked ligand B7-2
[14] = biological target: T4, mouse CTLA4-Fc fusion protein; assay: ELISA, binding to soluble mouse CTLA4-Fc (the legend gives no further details of the format)

T5 sequence (P16410 37-162 limits assumed): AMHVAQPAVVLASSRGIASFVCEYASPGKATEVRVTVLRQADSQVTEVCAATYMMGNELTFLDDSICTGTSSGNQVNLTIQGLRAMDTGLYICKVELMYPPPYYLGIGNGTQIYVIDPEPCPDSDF

| Binder | Kd [7] [nM] | koff [7] [s⁻¹] | kon [7] [M⁻¹ s⁻¹] | other results |
| --- | --- | --- | --- | --- |
| B1 | – | – | – | OD450 [1]: 0.279 OD; OD450 [2]: 3.41 OD; OD450 [3]: 3.63 OD |
| B2 | – | – | – | binding result (Control IgG1-Fc [4]): no binding |
| B3 | – | – | – | binding result (Control IgG1-Fc [5]): no binding (tested: 0.2 µg/mL); binding result [6]: no binding |
| B4 | 13 | 0.0018 | 130000 | – |
| B5 | 8.7 | 0.0022 | 250000 | – |
| B6 | 6.8 | 0.0019 | 280000 | – |
| B7 | 12 | 0.0019 | 160000 | – |
| B8 | – | – | – | binding result (M14): no binding (tested: 0.2 µg/mL); binding result (M12): no binding (tested: 0.2 µg/mL); binding result (M16): no binding (tested: 0.2 µg/mL); binding result (Control IgG1-Fc [8]): no binding (tested: 0.2 µg/mL); binding result [6]: no binding |
| B9 | 8.4 | 0.002 | 240000 | – |
| B10 | 8.1 | 0.0023 | 290000 | Kd [9]: 9.4 nM; koff [9]: 0.0021 s⁻¹; kon [9]: 230000 M⁻¹ s⁻¹; Kd [10]: 11 nM; koff [10]: 0.0022 s⁻¹; kon [10]: 210000 M⁻¹ s⁻¹ |
| B11 | 7.1 | 0.0014 | 200000 | – |
| B12 | – | – | – | binding result [11]: no binding |
| B13 | – | – | – | OD450 [12]: 3.03 OD |
| B14 | – | – | – | IC50 (read off the curve) [13]: ~1 µg/mL; EC50 (read off the curve) [14]: ~0.4 µg/mL |
